Assay [1] deals with Gαq/i (chimera between Gαq and Gαi), as used in fluorescence polarisation. The experiment in a line: fluorescence polarisation; direct binding of HTH peptide and Gαq/i; conditions not given.
The target in assay [2] is 1EBB-graft, displayed on yeast (Geobacillus stearothermophilus). As to the kind of experiment: flow cytometry on cells; yeast surface titration: yeast displaying the construct, biotinylated Gαq/i 1 nM to 7.5 μM with AlF4-, 1 h on ice, streptavidin-phycoerythrin; 10 mM HEPES pH 8.0, 150 mM NaCl, 10 mM MgCl2, 30 μM AlCl3, 10 mM NaF, 0.1% BSA; one-step isotherm, apparent KD. Background: Flow cytometry measures light scatter and fluorescence of single cells or particles in a stream.

Assay [3] deals with HTH peptide of PLC-β3 with the mutations I860A and V866W, expressed on the surface of yeast. The assay is described as above.
Assay [4] addresses 171L-graft, displayed on yeast (phage T4) (UniProt P00720). The description is as above.

Consider three substances from PMC8633581.

As usually defined, the pKd is the Kd on a negative log10 scale, so that one unit is a factor of ten.

pKd: −log10 of the molar value.

For the substance “TAMRA-labeled HTH peptide (I860A) derived from PLC-β3”, in assay [1], the pKd is 6.40.
Regarding “biotinylated Gαq/i (chimera between Gαq and Gαi, with C-terminal avitag)”, the pKd is 5.70 in assay [2], 6.40 in assay [3] and 5.77 in assay [4].
For the substance “soluble HTH peptide of PLC-β3 with the V866W mutation”, in assay [1], the pKd was 6.54 and the fold increase of affinity against the original HTH peptide was greater than 14 fold.
